B1: Vesicle-associated membrane protein 7 (Mus musculus), P70280 (parent)
chain: MAILFAVVARGTTILAKHAWCGGNFLEVTEQILAKIPSENNKLTYSHGNYLFHYICQDRIVYLCITDDDFERSRAFSFLNEVKKRFQTTYGSRAQTALPYAMNSEFSSVLAAQLKHHSENKSLDKVMETQAQVDELKGIMVRNIDLVAQRGERLELLIDKTENLVDSSVTFKTTSRNLARAMCMKNIKLTIIIIIVSIVFIYIIVSLLCGGFTWPNCVKK

Variants of: B1
Settings: with anr27_human ANKRD27, Q96NW4
anr27_human ANKRD27, Q96NW4, sequence (Q96NW4 whole entry): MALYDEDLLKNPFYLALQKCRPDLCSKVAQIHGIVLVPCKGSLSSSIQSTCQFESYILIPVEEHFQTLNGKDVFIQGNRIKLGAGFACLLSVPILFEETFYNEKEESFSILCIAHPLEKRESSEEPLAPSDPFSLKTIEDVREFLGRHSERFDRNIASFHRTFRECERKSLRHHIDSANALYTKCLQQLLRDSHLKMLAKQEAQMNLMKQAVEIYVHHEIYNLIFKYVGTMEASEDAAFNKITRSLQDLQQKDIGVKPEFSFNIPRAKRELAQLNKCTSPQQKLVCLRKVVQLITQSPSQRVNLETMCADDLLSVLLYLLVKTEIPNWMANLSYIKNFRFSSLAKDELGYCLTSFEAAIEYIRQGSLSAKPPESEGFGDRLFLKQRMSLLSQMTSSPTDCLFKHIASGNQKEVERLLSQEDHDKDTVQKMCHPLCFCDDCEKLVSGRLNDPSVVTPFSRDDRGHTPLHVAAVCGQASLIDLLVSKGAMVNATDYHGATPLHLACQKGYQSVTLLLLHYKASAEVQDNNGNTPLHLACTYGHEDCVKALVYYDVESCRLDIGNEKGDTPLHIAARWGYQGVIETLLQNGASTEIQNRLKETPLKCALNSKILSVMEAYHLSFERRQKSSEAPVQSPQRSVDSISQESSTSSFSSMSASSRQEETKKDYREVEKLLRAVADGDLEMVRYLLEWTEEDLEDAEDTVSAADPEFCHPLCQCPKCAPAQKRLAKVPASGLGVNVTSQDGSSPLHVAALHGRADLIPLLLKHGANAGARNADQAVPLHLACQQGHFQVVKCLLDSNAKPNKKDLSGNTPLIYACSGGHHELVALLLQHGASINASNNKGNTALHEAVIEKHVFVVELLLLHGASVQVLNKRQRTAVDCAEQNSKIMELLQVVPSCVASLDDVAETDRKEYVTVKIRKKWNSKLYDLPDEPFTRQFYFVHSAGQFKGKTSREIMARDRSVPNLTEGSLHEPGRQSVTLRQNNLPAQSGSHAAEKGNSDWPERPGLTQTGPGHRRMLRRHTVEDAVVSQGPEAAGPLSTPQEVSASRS

| Variant | effect of a mutation on the interaction |
| --- | --- |
| MAILFAVVARGTTILAKHAWCGGNFLEVTEQILAKIPSENNKLTYSHGNYLFHYICQDRIVYLCITDDAFFRDRAFSFLNEVKKRFQTTYGSRAQTALPYAMNSEFSSVLAAQLKHHSENKSLDKVMETQAQVDELKGIMVRNIDLVAQRGERLELLIDKTENLVDSSVTFKTTSRNLARAMCMKNIKLTIIIIIVSIVFIYIIVSLLCGGFTWPNCVKK [D69A;E71F;S73D] | disrupting interaction strength |
| MAILFAVVARGTTILAKHAWCGGNFLEVTEQILAKIPSENNKLTYSHGNYLFHYICQDRIVYLCITDDDFEASRAFSFLNEVKKRFQTTYGSRAQTALPYAMNSEFSSVLAAQLKHHSENKSLDKVMETQAQVDELKGIMVRNIDLVAQRGERLELLIDKTENLVDSSVTFKTTSRNLARAMCMKNIKLTIIIIIVSIVFIYIIVSLLCGGFTWPNCVKK [R72A] | disrupting interaction strength |

From IntAct's records for PubMed 23104059
